Measurements reported in paper PMC6009595.

Target: H-NS (Salmonella enterica serovar Typhimurium …, UniProt A0A0F6B244 1-137)
Assay: fluorescence anisotropy

Chain of H-NS (A0A0F6B244 whole entry): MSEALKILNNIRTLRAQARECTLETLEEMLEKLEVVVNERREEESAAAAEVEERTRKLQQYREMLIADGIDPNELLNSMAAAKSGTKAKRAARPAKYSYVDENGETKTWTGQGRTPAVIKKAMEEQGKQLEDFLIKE

B1: 36 bp pagC high-affinity H-NS site (HAhnsBS) (dsDNA)
DNA 1: ATGGGTTTTATAGCGAAATAGACTTTTTTATCGCGT
DNA 2: ACGCGATAAAAAAGTCTATTTCGCTATAAAACCCAT
binding result: binds
